In this experiment the target is T1, 人CD20 (on Raji cells) (human, UniProt P11836 1-297).
T1 construct: whole, on cells; No recombinant CD20 was used; also called Raja
T1 sequence (looked up): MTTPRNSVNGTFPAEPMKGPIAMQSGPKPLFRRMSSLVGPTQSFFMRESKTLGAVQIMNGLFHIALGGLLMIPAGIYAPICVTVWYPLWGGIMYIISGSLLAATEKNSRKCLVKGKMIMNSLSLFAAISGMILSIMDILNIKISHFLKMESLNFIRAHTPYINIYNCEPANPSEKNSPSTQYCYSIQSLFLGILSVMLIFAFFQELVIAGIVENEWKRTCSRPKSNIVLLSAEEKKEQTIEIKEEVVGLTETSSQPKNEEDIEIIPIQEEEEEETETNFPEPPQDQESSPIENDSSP
In words: in vitro antigen binding on Raji cells (flow cytometry). In general terms: In flow cytometry, cells or beads pass a laser one at a time.

B1: 抗人CD20人源化抗体hu8E4 (hu8E4Hb/hu8E4Lb) (antibody, human IgG1, kappa, V domains shown)
VH: EVQLVESGGGLVQPGGSLRLSCAASGFTFTSYNMHWVRQAPGKGLEWIGAIYPENGDTSYNQKFKDRATLTADKSKNTAYLQMNSLRAEDTAVYYCARWHYYGNGGALDYWGQGTLVTVSS
VL: DIQMTQSPSSLSASVGDRVTITCRASGNIHNYLAWYQQKPGKAPKLLVHNAKTLPDGVPSRFSGSGSGTDFTLTISSLQPEDFATYYCQQFWSNPWTFGQGTKVEIKR
notes: LCDR1 RASGNIHNYLA, LCDR2 NAKTLPD, LCDR3 QQFWSNPWT; The expression constructs carried signal peptides; also called hu8E4VHb/hu8E4VLb
Consider B1, for which the binding result was “binds”.

The values above are taken from patent CN102050877A (NAT ENGINEERING RES CT OF ANTIBODY MEDICINE SHANGHAI CO LTD, dated 2011).
